Experiment: yeast display, Sf9 membrane polyspecificity reagent, FACS + sequencing; frameworks hold sequencing errors
Summary of the method: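 Genes from sorted yeast were amplified by colony PCR, read by MiSeq 2 × 250 sequencing and filtered on CDR length. These cells carried a synthetic nanobody library in Saccharomyces cerevisiae BJ5465 and were sorted by FACS into low and high (top ~1%) gates on anti-HA and streptavidin fluorescence. Polyreactivity is labelled according to the gate of origin.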
For “QVQLVESGGGLVQAGGSLRLSCAASGSIFRSNSMGWYRQAPGKERELVAAISSRGGSTYYADSVKGRFTISRDNAKNTVYLQMNSLKPEDTAVYYCYKDRYTVISYDEYDYWGQGTQVTVSS”, the “polyreactivity (PSR sort gate)” value was “high polyreactivity”. For “QVQLVESGGGLVQAGGSLRLSCAASGSIFRSSDMGWYRQAPGKERELVAAISDSTGTTYYADSVKGRFTISRDNAKNTVYLQMNSLKPEDTAVYYCAADYFWYRSGRYHYWGQGTQVTVSS”, the “polyreactivity (PSR sort gate)” value was “high polyreactivity”. In the case of “QVQLVESGGGLVQAGGSLRLSCAASGSIFRSYAMGWYRQAPGKERELVAAISRRGGSTYYADSVKGRFTISRDNAKNTVYLQMNSLKPADTGVYYCAAVRYNSRVSTTPSDMYYWGQGTQVTVSS”, the “polyreactivity (PSR sort gate)” value is reported as “low polyreactivity”. In the case of “QVQLVESGGGLVQAGGSLRLSCAASGSIFRSYAMGWYRQAPGNERELVAAITRSGGSTYYADSVKGRFTISRDNAKNTVYLQMNSLKPEDTAVYYCAAEYYSYTWGWGHGYWGQGTQVTVSS”, the “polyreactivity (PSR sort gate)” value is reported as “high polyreactivity”. For “QVQLVESGGGLVQAGGSLRLSCAASGSIFRTNAMGWYRQAPGKEREFVASISSDSGNTYYADSVKGRFTISRDNAKYTVYLQMNSLKPEDTAVYYCARRKVRYWSYRAANYYWGQGTQVTVSS”, the “polyreactivity (PSR sort gate)” value was “low polyreactivity”. With “QVQLVESGGGLVQAGGSLRLSCAASGSIFRTNTMGWYRQAPGKEREFVAAITAIGDSTYYADSVKGRFTISRDNAKNTVYLQMNSLKPEDTAVYYCAAEKVSWGYHFYSSYDYWGQGTQVTVSS” the “polyreactivity (PSR sort gate)” value was “low polyreactivity”. With “QVQLVESGGGLVQAGGSLRLSCAASGSIFRTYTMGWYRQAPGKEREFVAAISRSGGSTYYADSVKGRFTISRDNAKNTVYLQMNSLKPEDTAVYYCNARCGLGSYGYWGQGTQVTVSS” the “polyreactivity (PSR sort gate)” value was “high polyreactivity”. In the case of “QVQLVESGGGLVQAGGSLRLSCAASGSIFRTYTMGWYRQAPGKEREFVAAISRSGGSTYYADSVKGRFTISRDNAKNTVYLQMNSLKPEDTAVYYCNARWGLGSYGYWGQGTQVTVTS”, the “polyreactivity (PSR sort gate)” value is reported as “high polyreactivity”. With “QVQLVESGGGLVQAGGSLRLSCAASGSIFRVYAMGWYRQAPGKERELVAAISSSGDSTYYADSVKGRFTISRDNAKNTVYLQMNSLKPEDTAVYYCAADVKQRVKSSTMYYWGQGTQVTVSS” the “polyreactivity (PSR sort gate)” value was “high polyreactivity”. For “QVQLVESGGGLVQAGGSLRLSCAASGSIFRVYAMGWYRQAPGKERELVAAISSSGVRTSYADSVKGRFTISRDNAKNTVYLQMNSLKPEDTAVYYCNAAYGRRYDYWGQGTQVTVSS”, the “polyreactivity (PSR sort gate)” value was “high polyreactivity”. With “QVQLVESGGGLVQAGGSLRLSCAASGSIFRVYAMGWYRQAPGKERELVAAITSRGGSTYYADSVKGRFTISRDNAKNTVYLQMNSLKQEDTAVYYCAAAYPYRTGRGYYWGQGTQVTVSS” the “polyreactivity (PSR sort gate)” value was “high polyreactivity”. For “QVQLVESGGGLVQAGGSLRLSCAASGSIFRVYAMGWYRQAPGKERELVAAITYSSGSTYYADSVKGRFTISRDNAKNTVYLQMNSLKPEDTAVYYCAAYWSYYLREFDYWGQGTQVTVSS”, the “polyreactivity (PSR sort gate)” value was “high polyreactivity”. With “QVQLVESGGGLVQAGGSLRLSCAASGSIFRVYAMGWYRQAPGKVRELVAVISIAGRTNYADSVKGRFTISRDNAKNTVYLQMNSLKPEDTAVYYCNAEWDLNHLYDSWGQGTQETVSS” the “polyreactivity (PSR sort gate)” value was “low polyreactivity”. In the case of “QVQLVESGGGLVQAGGSLRLSCAASGSIFRWNAMGWSRQATGKERELVAVINSSGGSTYYADSVKGRFTISRDNAKNTVYLQMNSLKPEDTAVYYCAADVFFYVYEAYLLYYWGQGTQVTVSS”, the “polyreactivity (PSR sort gate)” value is reported as “low polyreactivity”. In the case of “QVQLVESGGGLVQAGGSLRLSCAASGSIFRWYAIGWYRQAPGKERELVATICWSTGTTYYADSVKGRFTISRDNAKNTVYLQMNSLKPEDTAVYYCAKVSTYRSSYSLKSGYGNDYWGQGTQVTVSS”, the “polyreactivity (PSR sort gate)” value is reported as “low polyreactivity”. In the case of “QVQLVESGGGLVQAGGSLRLSCAASGSIFRYNAMGWYRQAPGKERELVAAIDWSGGTYYADSVKGRFTISRDNAKNTVYLQMNSLKPEDTAVYYCNARGSTYSSYWGYDYWGQGTQVTVSS”, the “polyreactivity (PSR sort gate)” value is reported as “low polyreactivity”. For “QVQLVESGGGLVQAGGSLRLSCAASGSIFRYNAMGWYRQAPGKERELVAAISQSGGRTSYADSVKGRFTISRDNAKNTVYLQMNSLKPEDTAVYYCAKRAYGYRSIYRMDYWGQGTQVTVSS”, the “polyreactivity (PSR sort gate)” value was “high polyreactivity”. With “QVQLVESGGGLVQAGGSLRLSCAASGSIFRYNAMGWYRQAPGKERELVAGITWGGGRTYYADSVKGRFTISRDNAKNTVYLQMNSLKPEDTAVYYCNAVRKYKGDSSFDYWGQGTQVTVSS” the “polyreactivity (PSR sort gate)” value was “high polyreactivity”. For “QVQLVESGGGLVQAGGSLRLSCAASGSIFRYNAMGWYRQAPGKERELVAVIRGTSGDTYYADSVKGRFTISRDNAKNTVYLQMNSLKPEDTAVYYCAAQLAGASYSHSNYSDWFDYWGQGTQVTVSS”, the “polyreactivity (PSR sort gate)” value was “low polyreactivity”. In the case of “QVQLVESGGGLVQAGGSLRLSCAASGSIFRYNVMGWYRQAPGKERELVAAISYTGGRKYYADSVKGRFTISRDNAKNTVYLQMNRLKPEETAVYDCAALGWSGRYRYDYWGQGTQVTVAS”, the “polyreactivity (PSR sort gate)” value is reported as “high polyreactivity”. In the case of “QVQLVESGGGLVQAGGSLRLSCAASGSIFRYVMGWYRQAPGKERELVAAISIRGGSTYYADSVKGRFTISRDNAKNTVYLQMNSLKPEDTAVYYCAADRYRLGVKYDYWGQGNQVTVSS”, the “polyreactivity (PSR sort gate)” value is reported as “high polyreactivity”. With “QVQLVESGGGLVQAGGSLRLSCAASGSIFRYYAMGWSRQAPGKERELVAAISRRGSSTYYADSVKGRFTISRDNAKKTVYLQMNSLKPEDTAVYYCAAGDFKQYDYWGQGTQVTVSS” the “polyreactivity (PSR sort gate)” value was “high polyreactivity”. For “QVQLVESGGGLVQAGGSLRLSCAASGSIFRYYAMGWYRQAPGKEREFVAAISRSGGSTYYADSVKGRFTISRDNAKNTVYLQMNSLKPEDTAVYYCAASYYRYFVSLGYDYWGQGTQVTVSS”, the “polyreactivity (PSR sort gate)” value was “high polyreactivity”. For “QVQLVESGGGLVQAGGSLRLSCAASGSIFRYYAMGWYRQAPGKERELVAAINSRGGTTYYADSVKGRFTISRDNAKNTVYLQMNSLKPEDTAVYYCAAGYPPLHTSVQQTAHYGLDYWGQGTQVTVSS”, the “polyreactivity (PSR sort gate)” value was “high polyreactivity”. With “QVQLVESGGGLVQAGGSLRLSCAASGSIFRYYAMGWYRQAPGKERELVAAISSSGDNTYYADSVKGRFTISRDNAKNTVYLQMNSLKPEDTAVYYCAVRGERRYIYDYWGQGTQVTVSS” the “polyreactivity (PSR sort gate)” value was “high polyreactivity”. With “QVQLVESGGGLVQAGGSLRLSCAASGSIFRYYAMGWYRQAPGKERELVAAITASGGRTHYADSVKGRFTISRDNAKNTVYLQMNSLKLEDTAVYYCSADLYYAWYWKQHYDYWGQGTQVTVSS” the “polyreactivity (PSR sort gate)” value was “high polyreactivity”. With “QVQLVESGGGLVQAGGSLRLSCAASGSIFRYYAMGWYRQAPGKERELVAAITWRGGGTYYADSVKGRFTISRDNAKNTVYLQMNSLKPEDTAVYYCAKARFTRGTWFYYWGQGTQVTVSS” the “polyreactivity (PSR sort gate)” value was “high polyreactivity”. With “QVQLVESGGGLVQAGGSLRLSCAASGSIFRYYAMGWYRQAPGKERELVARISRNAGRTYYADSVKGRFTISRDNAKNTVYLQMNSLKPEDTAVYYCAADGSKPYAMDYWGQGTQVTVSS” the “polyreactivity (PSR sort gate)” value was “high polyreactivity”. In the case of “QVQLVESGGGLVQAGGSLRLSCAASGSIFRYYAMGWYRQAPGKERELVATISSGGRTYYADSVKGRFTISRDNAKNTVYLQMNSQKPEDTAVYYCAARYGTTRYGFDYWGQGTQVTVSS”, the “polyreactivity (PSR sort gate)” value is reported as “high polyreactivity”. For “QVQLVESGGGLVQAGGSLRLSCAASGSIFRYYDMGWYRQAPGKERELVAAISYSDGRTYYADSVKGRFTISRDNAKNTVYLQMNSLKPEDTAVYYCAAETLYVSPYFFVVQYDYWGQGTKVTVSS”, the “polyreactivity (PSR sort gate)” value was “high polyreactivity”. In the case of “QVQLVESGGGLVQAGGSLRLSCAASGSIFSANAMGWYRQAPGKERELVAAITSGDSTKYADSVKGRFTISRDNAKNTVYLQMNSLKPEDTAVYYCAVDRGEYKNRVGEEYWGQGTQVTVSS”, the “polyreactivity (PSR sort gate)” value is reported as “low polyreactivity”. For “QVQLVESGGGLVQAGGSLRLSCAASGSIFSAYAIGWYRQAPGKERELDAAITKSSVTYYADSVKGRFTISRDNAKNSVYLHMNSLKPEDTAVYYCAAASGGTVVGEVDYWGQGTQVTVSS”, the “polyreactivity (PSR sort gate)” value was “low polyreactivity”. In the case of “QVQLVESGGGLVQAGGSLRLSCAASGSIFSAYAMGWYIQAPGKERELVAGITGSGGRTYYADSVKGRFTISRDNAKNTVYLQMNSLKPEDTAVYYCLARSYYNWYDYWGQGTQVTVSS”, the “polyreactivity (PSR sort gate)” value is reported as “high polyreactivity”. For “QVQLVESGGGLVQAGGSLRLSCAASGSIFSDYAIGWYSTAPGKERELVASISWTGGGTYYADSVKGRFTISRDNAKNTVYLQMNSVKPEDTGFYYCAAEYSYIMDFWGQGTQVTVSS”, the “polyreactivity (PSR sort gate)” value was “high polyreactivity”. For “QVQLVESGGGLVQAGGSLRLSCAASGSIFSDYAMGWYRQAPGKERELVAAITQSGVSTYADSVKGRFTISRDNAKNTVYLQMNSLKPEDTAVYYCAADEVPGFGYPPYPWFDYWGQGTQVTVSS”, the “polyreactivity (PSR sort gate)” value was “low polyreactivity”. With “QVQLVESGGGLVQAGGSLRLSCAASGSIFSENTMGWYRPAPGKKRELVADITSGGSTNYADSVKGRFTISRDNAKKTVYLQMNSLKPEDTAVYYCAADYNGEYDYWGLGTQVTVSS” the “polyreactivity (PSR sort gate)” value was “low polyreactivity”. In the case of “QVQLVESGGGLVQAGGSLRLSCAASGSIFSFNVMGWYRQAPGKERELVATITGGGSTNYADSVKGRFTISRDNAKNTVYLQMNSLIPEDTAVYYCAARPVNGGILEYWGQGTQVTVSS”, the “polyreactivity (PSR sort gate)” value is reported as “low polyreactivity”. With “QVQLVESGGGLVQAGGSLRLSCAASGSIFSFYTMGWYRQAPGKERELVAAINWSGSRTYYADSVKGRFTISRDNAKKTVYLQMNSLNPEDTAVYYCAARKYYSRAYDYWGQGTQVTVSS” the “polyreactivity (PSR sort gate)” value was “high polyreactivity”. With “QVQLVESGGGLVQAGGSLRLSCAASGSIFSGNAMGWYRQAPGKERELVAAISRSGGSTYYADSVKGRFTISRDYAKNTVYLQMNSLKPEDTAVYYCAKGQYYYIGDYDYWGQGTQVTVSS” the “polyreactivity (PSR sort gate)” value was “high polyreactivity”. In the case of “QVQLVESGGGLVQAGGSLRLSCAASGSIFSGYAMGWYRQAPGKERELVAAISRRGTSTYYADSVKGRFTISRDNAKNTVYLQMNSLKPEDTAVYYCAATYGGRQSYGGFDYWGQGTQVTVSS”, the “polyreactivity (PSR sort gate)” value is reported as “high polyreactivity”. For “QVQLVESGGGLVQAGGSLRLSCAASGSIFSGYAMGWYRQAPGKERELVAAITRSGGRTYYADSVKGRFTISRDNAKNTVYLQMNSLKPEDTAVYYCAARGGPGDDYWGQGTQVTVSS”, the “polyreactivity (PSR sort gate)” value was “high polyreactivity”. With “QVQLVESGGGLVQAGGSLRLSCAASGSIFSGYVMGWYRQAPGKERELVAAIDNSSGSTYYADSVKGRFTISRDNAKNSVYLQMNSLKPEDTAVYYCAAAYYWKAYSEYDYWGQGTQVTVSS” the “polyreactivity (PSR sort gate)” value was “low polyreactivity”. In the case of “QVQLVESGGGLVQAGGSLRLSCAASGSIFSHNAMGWYRQAPGKERELVAAISWSAASTYYADSVKGRFTISRDNAKNTVYLQMNSLKPEDTAVYYCAAVPYSSTYRYDYWGQGTQVTVSS”, the “polyreactivity (PSR sort gate)” value is reported as “low polyreactivity”.

— the nanobody polyreactivity screen of Harvey et al. (2022)
